Where no end group is shown, it is not given here. [ ]: non-standard residue; d: D form.
Target: IL-1R on freshly isolated rat thymocytes (rat) (UniProt Q02955)
Experiment: radioligand binding on freshly isolated rat thymocytes: displacement of 6 nM I^125-API-101.10 by increasing non-radioactive API-101.10 (printed as 'affinity')

- Kd: 1000 nM
Binder: [dR][dY][dT][dV][dE][dL][dA] (also: 125I-labelled form used as tracer, site not given here) [API-101.10]

From patent publication US20090048161A1
